These results are taken from IntAct's records for PubMed 17681130.

B1: Protein BRASSINAZOLE-RESISTANT 1 (Arabidopsis thaliana (Mouse-ear cress)), Q8S307 (parent)
chain: MTSDGATSTSAAAAAAAAAAARRKPSWRERENNRRRERRRRAVAAKIYTGLRAQGDYNLPKHCDNNEVLKALCVEAGWVVEEDGTTYRKGCKPLPGEIAGTSSRVTPYSSQNQSPLSSAFQSPIPSYQVSPSSSSFPSPSRGEPNNNMSSTFFPFLRNGGIPSSLPSLRISNSCPVTPPVSSPTSKNPKPLPNWESIAKQSMAIAKQSMASFNYPFYAVSAPASPTHRHQFHTPATIPECDESDSSTVDSGHWISFQKFAQQQPFSASMVPTSPTFNLVKPAPQQMSPNTAAFQEIGQSSEFKFENSQVKPWEGERIHDVGMEDLELTLGNGKARG
partner: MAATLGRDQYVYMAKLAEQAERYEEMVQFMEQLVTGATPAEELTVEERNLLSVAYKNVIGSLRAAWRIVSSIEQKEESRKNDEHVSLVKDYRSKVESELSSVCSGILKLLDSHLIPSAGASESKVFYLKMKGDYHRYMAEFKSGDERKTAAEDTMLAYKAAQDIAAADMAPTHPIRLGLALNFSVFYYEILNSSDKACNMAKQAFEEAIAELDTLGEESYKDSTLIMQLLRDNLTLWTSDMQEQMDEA

In this test the parent is B1. The conditions noted are these: with 14336_arath GRF6, P48349.
S173A: the “effect of a mutation on the interaction” value is recorded as “decreasing interaction”.
